Data published in patent US20120316071A1 (published 2012).
Where a chain is given by its changes, count along the chain named. In names and notes the source's numbering stands. Each block holds one binder with its values, some of them ahead of it.

Assays:
rHuman EGF R/Fc Chimera [1] = target: T1, rHuman EGF R/Fc Chimera (human, UniProt P00533 25-645); assay: ECL Multispot (MSD) assay, antigens spotted on plate, 10 nM Fab; blank of this well 254
T1 construct: Bought from R&D Systems; not shown: Fc part of a bought chimera

[2] = target: T2, rHuman HGF R/c-MET/Fc Chimera (human, UniProt P08581 25-932); assay: as above
T2 construct: Bought from R&D Systems; also called HGF R/Fc; not shown: Fc part of a bought chimera

[3] = target: T3, rHuman P-Cadherin/Fc Chimera (human, UniProt P22223 108-654); assay: as above
T3 construct: Bought from R&D Systems; not shown: Fc part of a bought chimera

[4] = target: T4, Recombinant Human DLL4 (delta-like protein 4) (human, UniProt Q9NR61 27-524); assay: as above
T4 construct: Bought recombinant protein; also called rHuman DLL4

[5] = target: T5, rHuman IGF-1 sR (insulin-like growth factor-1 soluble receptor) (human, UniProt P08069 31-932); assay: as above
T5 construct: Bought soluble receptor

rHuman ErbB2/Fc Chimera [6] = target: T6, rHuman ErbB2/Fc Chimera (human, UniProt P04626 23-652); assay: as above
T6 construct: Bought from R&D Systems; not shown: Fc part of a bought chimera

rHuman EGF R/Fc Chimera [7] = target: T1, rHuman EGF R/Fc Chimera; assay: ECL Multispot (MSD) assay, antigens spotted on plate, 10 nM Fab; blank of this well 184
[8] = target: T2, rHuman HGF R/c-MET/Fc Chimera; assay: as above
[9] = target: T3, rHuman P-Cadherin/Fc Chimera; assay: as above
[10] = target: T4, Recombinant Human DLL4 (delta-like …); assay: as above
[11] = target: T5, rHuman IGF-1 sR (insulin-like growth …); assay: as above
rHuman ErbB2/Fc Chimera [12] = target: T6, rHuman ErbB2/Fc Chimera; assay: as above
[13] = target: T7, rHuman ErbB2/Fc Chimera, CF (R&D Systems Cat#1129-ER) (human, UniProt P04626 23-652); assay: ECL multispot (MSD), antigen spotted; blank spot of this well 271
T7 construct: Bought protein; also called human epidermal growth factor 2 receptor

[14] = target: T8, Recombinant Human DLL4 (R&D Systems Cat#1506-D4/CF) (human, UniProt Q9NR61 27-524); assay: as above
T8 construct: Bought recombinant protein; also called delta-like protein 4; rHuman DLL4

[15] = target: T9, rHuman P-Cadherin/Fc Chimera, CF (R&D Systems Cat#861-PC) (human, UniProt P22223 108-654); assay: as above
T9 construct: Bought protein

[16] = target: T10, rHuman EGF R/Fc Chimera, CF (R&D Systems Cat#344-ER) (human, UniProt P00533 25-645); assay: as above
T10 construct: Bought protein; also called epidermal growth factor receptor

[17] = target: T11, rHuman IGF-1 sR, CF (R&D Systems Cat#391-GR) (human, UniProt P08069 31-932); assay: as above
T11 construct: Bought soluble receptor; also called insulin-like growth factor-1 soluble receptor

[18] = target: T12, rHuman Erythropoietin R/Fc Chimera, CF (R&D Systems Cat#963-ER) (human, UniProt P19235 25-250); assay: as above
T12 construct: Bought protein; also called EPO R; EPO R/Fc
T12 sequence (looked up): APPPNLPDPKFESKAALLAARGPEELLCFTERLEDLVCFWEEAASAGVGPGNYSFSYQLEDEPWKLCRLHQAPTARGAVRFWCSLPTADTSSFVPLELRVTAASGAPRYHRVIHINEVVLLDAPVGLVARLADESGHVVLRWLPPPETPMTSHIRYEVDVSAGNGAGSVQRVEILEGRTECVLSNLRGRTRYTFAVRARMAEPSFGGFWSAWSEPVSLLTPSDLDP

[19] = target: T13, rHuman CD44/Fc Chimera, CF (R&D Systems Cat#3660-CD) (human, UniProt P16070 21-220); assay: as above
T13 construct: Bought protein

[20] = target: T14, rHuman Notch-1/Fc Chimera, CF (R&D Systems Cat#3647-TK) (human, UniProt P46531 19-526); assay: as above
T14 construct: Bought protein

[21] = target: T15, rHuman HGF R/c-MET/Fc Chimera, CF (R&D Systems Cat#358-MT/CF) (human, UniProt P08581 25-932); assay: as above
T15 construct: Bought protein; also called HGF R/Fc; hepatocyte growth factor receptor

Recombinant Human DLL4 [22] = target: T16, Recombinant Human DLL4 (human, UniProt Q9NR61 27-524); assay: ECL (MSD) multispot binding assay, DLL4 signal over blank spot
T16 construct: also called delta-like protein 4; rHuman DLL4

Recombinant Human DLL4 [23] = target: T16, Recombinant Human DLL4; assay: ECL (MSD) multispot binding assay, DLL4 spotted on plate, Fab in solution
[24] = target: T7, rHuman ErbB2/Fc Chimera, CF (R&D …); assay: ECL multispot (MSD), antigen spotted; blank spot of this well 209
[25] = target: T9, rHuman P-Cadherin/Fc Chimera, CF (R&D …); assay: as above
[26] = target: T10, rHuman EGF R/Fc Chimera, CF (R&D …); assay: as above
[27] = target: T11, rHuman IGF-1 sR, CF (R&D Systems …); assay: as above
[28] = target: T12, rHuman Erythropoietin R/Fc Chimera, CF …; assay: as above
[29] = target: T13, rHuman CD44/Fc Chimera, CF (R&D Systems …); assay: as above
[30] = target: T14, rHuman Notch-1/Fc Chimera, CF (R&D …); assay: as above
[31] = target: T15, rHuman HGF R/c-MET/Fc Chimera, CF (R&D …); assay: as above
[32] = target: T7, rHuman ErbB2/Fc Chimera, CF (R&D …); assay: ECL multispot (MSD), antigen spotted; blank spot of this well 273
[33] = target: T9, rHuman P-Cadherin/Fc Chimera, CF (R&D …); assay: as above
[34] = target: T10, rHuman EGF R/Fc Chimera, CF (R&D …); assay: as above
[35] = target: T11, rHuman IGF-1 sR, CF (R&D Systems …); assay: as above
[36] = target: T12, rHuman Erythropoietin R/Fc Chimera, CF …; assay: as above
[37] = target: T13, rHuman CD44/Fc Chimera, CF (R&D Systems …); assay: as above
[38] = target: T14, rHuman Notch-1/Fc Chimera, CF (R&D …); assay: as above
[39] = target: T15, rHuman HGF R/c-MET/Fc Chimera, CF (R&D …); assay: as above

T15 sequence (P08581 25-932, change not shown): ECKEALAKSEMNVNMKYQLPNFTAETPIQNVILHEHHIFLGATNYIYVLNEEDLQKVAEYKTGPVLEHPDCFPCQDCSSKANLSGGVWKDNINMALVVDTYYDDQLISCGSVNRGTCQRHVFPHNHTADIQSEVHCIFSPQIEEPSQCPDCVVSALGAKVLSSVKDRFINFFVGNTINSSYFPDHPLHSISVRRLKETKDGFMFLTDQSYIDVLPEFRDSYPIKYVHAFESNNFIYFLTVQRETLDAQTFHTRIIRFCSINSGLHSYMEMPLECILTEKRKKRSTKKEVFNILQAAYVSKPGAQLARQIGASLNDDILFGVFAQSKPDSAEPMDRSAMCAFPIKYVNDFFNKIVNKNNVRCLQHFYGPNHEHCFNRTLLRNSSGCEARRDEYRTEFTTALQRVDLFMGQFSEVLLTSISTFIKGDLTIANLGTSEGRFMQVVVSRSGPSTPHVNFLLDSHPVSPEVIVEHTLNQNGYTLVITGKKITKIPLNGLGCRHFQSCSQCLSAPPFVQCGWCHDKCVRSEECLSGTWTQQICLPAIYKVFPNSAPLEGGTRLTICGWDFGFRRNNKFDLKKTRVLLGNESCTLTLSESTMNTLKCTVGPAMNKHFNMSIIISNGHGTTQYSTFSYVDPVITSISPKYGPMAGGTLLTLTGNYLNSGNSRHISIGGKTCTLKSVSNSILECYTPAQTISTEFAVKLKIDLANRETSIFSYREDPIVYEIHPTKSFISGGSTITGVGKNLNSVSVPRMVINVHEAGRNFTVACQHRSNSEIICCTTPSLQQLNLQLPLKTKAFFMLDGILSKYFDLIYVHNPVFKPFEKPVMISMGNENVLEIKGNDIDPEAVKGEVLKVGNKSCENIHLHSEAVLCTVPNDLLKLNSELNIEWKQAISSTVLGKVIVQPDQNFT
T2 sequence (P08581 25-932, change not shown): as above

- ECL signal (rHuman EGF R/Fc Chimera [1]): 209
- ECL signal [2]: 176
- ECL signal [3]: 138
- ECL signal [4]: 148000
- ECL signal [5]: 306
- ECL signal (rHuman ErbB2/Fc Chimera [6]): 351
- ECL signal (rHuman EGF R/Fc Chimera [7]): 409
- ECL signal [8]: 263
- ECL signal [9]: 240
- ECL signal [10]: 132000
- ECL signal [11]: 173
- ECL signal (rHuman ErbB2/Fc Chimera [12]): 322
B1: Fab VH1-46_IGHD6-6*01_IGHJ1*01 S102A/S103P/S104F/H111F & L6_IGKJ1*01 (Fab, V domains shown)
VH: QVQLVQSGAEVKKPGASVKVSCKASGYTFTSYYMHWVRQAPGQGLEWMGIINPSGGSTSYAQKFQGRVTMTRDTSTSTVYMELSSLRSEDTAVYYCAREEYAPFSAEYFQFWGQGTLVTVSS
VL: not shown
notes: Fab made in E. coli; VH was cloned into Plasmid A (CH1, His6 and Flag tags) and VL into Plasmid C (kappa constant region); also called APFF; H:APFF & L:wt

- ECL signal [13]: 333
- ECL signal [14]: 1280
- ECL signal [15]: 296
- ECL signal [16]: 216
- ECL signal [17]: 199
- ECL signal [18]: 275
- ECL signal [19]: 252
- ECL signal [20]: 228
- ECL signal [21]: 273
B2: Fab VH1-46_IGHD6-6*01_IGHJ1*01 S102A/S103P/S104F (APF) & L6_IGKJ1*01 R91P (Fab, V domains shown)
VH: B1 VH with F111H
VL: EIVLTQSPATLSLSPGERATLSCRASQSVSSYLAWYQQKPGQAPRLLIYDASNRATGIPARFSGSGSGTDFTLTISSLEPEDFAVYYCQQPSNWPPWTFGQGTKVEIKR
notes: Fab made in E. coli: VH cloned into Plasmid A (CH1, His6 and Flag tags), VL into Plasmid C (kappa CL); also called APF / R91P

- Signal/Blank (Recombinant Human DLL4 [22]): 194
- ECL signal (Recombinant Human DLL4 [23]): 54100
B3: Fab VH1-46_IGHD6-6*01_IGHJ1*01 S102A/S103P/S104F/H111F (APFF) & L6_IGKJ1*01 S92T (Fab, V domains shown)
VH: B1 VH
VL: B2 VL with P91R, S92T
notes: Fab from E. coli; VH in Plasmid A (CH1, His6 and Flag tags), VL in Plasmid C (kappa CL); also called APFF & S92T

- ECL signal [24]: 236
- ECL signal [25]: 235
- ECL signal [26]: 271
- ECL signal [27]: 260
- ECL signal [28]: 306
- ECL signal [29]: 163
- ECL signal [30]: 170
- ECL signal [31]: 239
B4: Fab VH1-46_IGHD6-6*01_IGHJ1*01 S102A/S103P/S104F (APF) & L6_IGKJ1*01 R91G (Fab, V domains shown)
VH: B1 VH with F111H
VL: B2 VL with P91G
notes: Fab made in E. coli: VH cloned into Plasmid A (CH1, His6 and Flag tags), VL into Plasmid C (kappa CL); also called APF / R91G

- ECL signal [32]: 526
- ECL signal [33]: 437
- ECL signal [34]: 367
- ECL signal [35]: 382
- ECL signal [36]: 459
- ECL signal [37]: 236
- ECL signal [38]: 383
- ECL signal [39]: 255
B5: Fab VH1-46_IGHD6-6*01_IGHJ1*01 S102A/S103P/S104F (APF) & L6_IGKJ1*01 R91L (Fab, V domains shown)
VH: B1 VH with F111H
VL: B2 VL with P91L
notes: Fab made in E. coli: VH cloned into Plasmid A (CH1, His6 and Flag tags), VL into Plasmid C (kappa CL); also called APF / R91L
